Measurements published in publication PMC11408749, “Molecular mechanisms for DNA methylation defects induced by ICF syndrome‐linked mutations in DNMT3B”.

Tests used:
Test in all cases: fluorescence polarization; FP: 10 nM DNA, 20 mM Tris-HCl pH 8.0, 50 mM NaCl, 5% glycerol, 1 mM TCEP, 30 min at 25 C
[1] = target: DNMT3BΔ570 WT;DNMT3L MTase-like domain (human;human, UniProt Q9UBC3;Q9UJW3 571-853;179-379, |); conditions: protein: recombinant;recombinant; tags: 6xHis-SUMO removed by TEV;6xHis removed by TEV; chain copies: 2;2; label: 3'-FAM
Sequence of DNMT3BΔ570 WT;DNMT3L MTase-like domain (Q9UJW3 179-379, stated change not applied, chain 2 of 2, other chains not shown): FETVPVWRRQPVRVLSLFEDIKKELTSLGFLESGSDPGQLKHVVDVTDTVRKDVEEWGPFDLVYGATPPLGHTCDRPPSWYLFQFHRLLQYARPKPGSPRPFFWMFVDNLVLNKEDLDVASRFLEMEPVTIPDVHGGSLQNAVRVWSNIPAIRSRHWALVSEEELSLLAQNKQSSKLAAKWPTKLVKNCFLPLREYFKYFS

[2] = target: DNMT3BΔ214 R823G;DNMT3L MTase-like domain (human;human, UniProt Q9UBC3;Q9UJW3 215-853;179-379, R823G|); conditions: protein: recombinant;recombinant; tags: tag (if any) removed by TEV;6xHis removed by TEV; chain copies: 2;2; label: 3'-FAM
Sequence of DNMT3BΔ214 R823G;DNMT3L MTase-like domain (Q9UJW3 179-379, chain 2 of 2, other chains not shown): as the sequence (Q9UJW3 179-379, stated change not applied, chain 2 of 2, other chains not shown) above

[3] = target: DNMT3BΔ214 D817G;DNMT3L MTase-like domain (human;human, UniProt Q9UBC3;Q9UJW3 215-853;179-379, D817G|); conditions: protein: recombinant;recombinant; tags: tag (if any) removed by TEV;6xHis removed by TEV; chain copies: 2;2; label: 3'-FAM
Sequence of DNMT3BΔ214 D817G;DNMT3L MTase-like domain (Q9UJW3 179-379, chain 2 of 2, other chains not shown): as the sequence (Q9UJW3 179-379, stated change not applied, chain 2 of 2, other chains not shown) above

[4] = target: DNMT3BΔ214 WT;DNMT3L MTase-like domain (human;human, UniProt Q9UBC3;Q9UJW3 215-853;179-379, |); conditions: protein: recombinant;recombinant; tags: tag (if any) removed by TEV;6xHis removed by TEV; chain copies: 2;2; label: 3'-FAM
Sequence of DNMT3BΔ214 WT;DNMT3L MTase-like domain (Q9UJW3 179-379, stated change not applied, chain 2 of 2, other chains not shown): as above

[5] = target: DNMT3BΔ570 R823G;DNMT3L MTase-like domain (human;human, UniProt Q9UBC3;Q9UJW3 571-853;179-379, R823G|); conditions: protein: recombinant;recombinant; tags: 6xHis-SUMO removed by TEV;6xHis removed by TEV; chain copies: 2;2; label: 3'-FAM
Sequence of DNMT3BΔ570 R823G;DNMT3L MTase-like domain (Q9UJW3 179-379, chain 2 of 2, other chains not shown): as the sequence (Q9UJW3 179-379, stated change not applied, chain 2 of 2, other chains not shown) above

[6] = target: DNMT3BΔ214 V818M;DNMT3L MTase-like domain (human;human, UniProt Q9UBC3;Q9UJW3 215-853;179-379, V818M|); conditions: protein: recombinant;recombinant; tags: tag (if any) removed by TEV;6xHis removed by TEV; chain copies: 2;2; label: 3'-FAM
Sequence of DNMT3BΔ214 V818M;DNMT3L MTase-like domain (Q9UJW3 179-379, chain 2 of 2, other chains not shown): as the sequence (Q9UJW3 179-379, stated change not applied, chain 2 of 2, other chains not shown) above

[7] = target: DNMT3BΔ214 H814R;DNMT3L MTase-like domain (human;human, UniProt Q9UBC3;Q9UJW3 215-853;179-379, H814R|); conditions: protein: recombinant;recombinant; tags: tag (if any) removed by TEV;6xHis removed by TEV; chain copies: 2;2; label: 3'-FAM
Sequence of DNMT3BΔ214 H814R;DNMT3L MTase-like domain (Q9UJW3 179-379, chain 2 of 2, other chains not shown): as the sequence (Q9UJW3 179-379, stated change not applied, chain 2 of 2, other chains not shown) above

B1: 49-bp FAM dsDNA (dsDNA)
DNA 1: AAAACGAAAAAAAAAAAAAAAAAAAAAAAAAAAAAAAAAAAAAAAAAAA
DNA 2: TTTTTTTTTTTTTTTTTTTTTTTTTTTTTTTTTTTTTTTTTTTCGTTTT
B1 gave a Kd [1] of 70 ± 7 nM, a Kd [2] of 5.39 ± 0.58 µM and a Kd [3] of 58 ± 6.15 µM. It also gave a Kd [4] of 2730 ± 260 nM, a Kd [5] of 171 ± 8 nM and a Kd [6] of 7.21 ± 0.78 µM. It also gave a Kd [7] of 299 ± 55.8 µM.
